From publication PMC4882459 (The Journal of Biological Chemistry, 2016)

Biological target: T1, C1q (human, UniProt P02745 23-245; P02746 28-253; P02747 29-245)
T1 construct: also called human C1q; purified C1q; source: bought: Calbiochem (purified); also endogenous, human serum; copies: + +
Assay: ELISA; C1q binding assay: ES-62, PCh-BSA or CWPS coated to give equivalent CRP binding; CRP 0.4 ug/ml added, then purified C1q at 0, 0.2, 2.0 and 5.0 ug/ml, 1 h at room temperature; detected with anti-C1q
Details: both partners purified

T1 sequence (P02745 23-245, chain 1 of 3): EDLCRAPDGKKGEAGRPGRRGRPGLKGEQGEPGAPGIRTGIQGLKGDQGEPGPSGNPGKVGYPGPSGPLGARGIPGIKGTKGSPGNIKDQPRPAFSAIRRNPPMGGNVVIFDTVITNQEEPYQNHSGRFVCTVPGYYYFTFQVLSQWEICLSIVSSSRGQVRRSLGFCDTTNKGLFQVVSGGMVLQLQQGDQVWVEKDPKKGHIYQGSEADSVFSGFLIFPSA
T1 sequence (P02746 28-253, chain 2 of 3): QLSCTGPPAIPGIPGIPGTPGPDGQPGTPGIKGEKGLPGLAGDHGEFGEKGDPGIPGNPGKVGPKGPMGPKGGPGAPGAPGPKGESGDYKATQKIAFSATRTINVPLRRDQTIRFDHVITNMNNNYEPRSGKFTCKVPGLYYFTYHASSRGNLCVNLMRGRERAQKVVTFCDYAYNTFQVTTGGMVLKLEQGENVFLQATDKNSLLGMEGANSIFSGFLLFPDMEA
T1 sequence (P02747 29-245, chain 3 of 3): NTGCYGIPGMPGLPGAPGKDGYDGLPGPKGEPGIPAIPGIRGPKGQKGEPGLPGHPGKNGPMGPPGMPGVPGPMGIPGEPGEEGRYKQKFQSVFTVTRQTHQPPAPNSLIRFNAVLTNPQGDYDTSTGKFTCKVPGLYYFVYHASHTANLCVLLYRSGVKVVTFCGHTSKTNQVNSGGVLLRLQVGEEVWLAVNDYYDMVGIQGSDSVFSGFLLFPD

B1: C-reactive protein (native, human) (natural protein)
chain: QTDMSRKAFVFPKESDTSYVSLKAPLTKPLKAFTVCLHFYTELSSTRGYSIFSYATKRQDNEILIFWSKDIGYSFTVGGSEILFEVPEVTVAPVHICTSWESASGIVEFWVDGKPRVRKSLKKGYTVGAEASIILGQEQDSFGGNFEGSQSLVGDIGNVNMWDFVLSPDEINTIYLGGPFSPNVLNWRALKYEVQGEVFTKPQLWP
notes: C-reactive protein, human, native pentamer of subunits of ~25 kD; Used as purified protein, as purified protein added to diluted serum, and as the endogenous protein of normal human serum; also called CRP; native CRP; source: also endogenous, normal human serum
B1: binds.
